B3: His10 − MBP − KIF1C(714–809) (domain or fragment, UniProt O43896 714-809, looked up)
chain: PSSGKRRAPRRVYQIPQRRRLQGKDPRWATMADLKMQAVKEICYEVALADFRHGRAEIEALAALKMRELCRTYGKPDGPGDAWRAVARDVWDTVGE
notes: Tag kept, as named in the legends and methods of the native gel, ITC and SEC experiments; also called KIF1C_(H3BD); source: E. coli BL21(DE3) RIL, purified (Ni-NTA, size-exclusion chromatography); not shown: His10, N-terminal, kept; MBP, N-terminal, kept

What was measured:
[1] = target: B3; assay: ITC; 0.8 mM His10−MBP−Hook3(553–624) or His10−MBP−PTPN21(19–308) titrated into 0.04 mM His10−MBP−KIF1C(714–809); 25 °C; 50 mM Tris-HCl pH 7.5, 500 mM NaCl, 3 mM β-mercaptoethanol; MicroCal VP-ITC; details: both partners purified
[2] = target: the molecule itself; assay: crystal structure; Hook3(553–624) − KIF1C(714–809) complex, 30 mg/mL, sitting drop at 4 °C, 0.1 M sodium citrate/citric acid pH 5.5, 20% PEG 4000, 20% isopropanol; 3.0 Å
[3] = target: T1, His10 − MBP−Hook3(553–718) (UniProt Q86VS8 553-718); assay: native gel or EMSA; His10−MBP-tagged recombinant proteins alone or mixed (10 µM; molar ratio 1:1), incubated 16 h at 4 °C, 10% native gel, 120 V for 2 h on ice, Coomassie staining; details: both partners purified
T1 construct: source: E. coli BL21(DE3) RIL, purified (Ni-NTA, size-exclusion chromatography); not shown: His10, N-terminal, kept; MBP, N-terminal, kept
T1 sequence (looked up): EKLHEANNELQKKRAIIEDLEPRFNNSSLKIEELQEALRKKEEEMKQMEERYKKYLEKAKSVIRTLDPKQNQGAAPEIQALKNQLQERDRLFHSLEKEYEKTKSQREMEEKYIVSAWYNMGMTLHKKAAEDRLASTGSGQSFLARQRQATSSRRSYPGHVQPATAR

[4] = target: T2, His10 − MBP − PTPN21(19–308) (UniProt Q16825 19-308); assay: ITC; 0.8 mM His10−MBP−Hook3(553–624) or His10−MBP−PTPN21(19–308) titrated into 0.04 mM His10−MBP−KIF1C(714–809); 25 °C; 50 mM Tris-HCl pH 7.5, 500 mM NaCl, 3 mM β-mercaptoethanol; MicroCal VP-ITC; details: both partners purified
T2 construct: Tagged form used in native gels and ITC; also called PTPN21_(FERM); FERM domain of PTPN21; source: E. coli BL21(DE3) RIL, purified (Ni-NTA, size-exclusion chromatography); not shown: His10, N-terminal, kept; MBP, N-terminal, kept
T2 sequence (looked up): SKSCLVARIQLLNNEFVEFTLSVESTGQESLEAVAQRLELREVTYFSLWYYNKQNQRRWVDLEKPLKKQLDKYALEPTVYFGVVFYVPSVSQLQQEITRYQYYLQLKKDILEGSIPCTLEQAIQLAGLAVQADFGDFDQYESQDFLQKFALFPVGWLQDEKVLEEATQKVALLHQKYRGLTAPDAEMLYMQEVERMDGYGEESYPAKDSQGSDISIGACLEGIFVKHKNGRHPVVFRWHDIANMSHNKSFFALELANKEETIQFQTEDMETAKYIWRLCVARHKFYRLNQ

[5] = target: T3, full-length KIF1C(WT)−Flag−EGFP (UniProt O43896 1-1103); assay: cell-based or functional assay
T3 sequence (looked up): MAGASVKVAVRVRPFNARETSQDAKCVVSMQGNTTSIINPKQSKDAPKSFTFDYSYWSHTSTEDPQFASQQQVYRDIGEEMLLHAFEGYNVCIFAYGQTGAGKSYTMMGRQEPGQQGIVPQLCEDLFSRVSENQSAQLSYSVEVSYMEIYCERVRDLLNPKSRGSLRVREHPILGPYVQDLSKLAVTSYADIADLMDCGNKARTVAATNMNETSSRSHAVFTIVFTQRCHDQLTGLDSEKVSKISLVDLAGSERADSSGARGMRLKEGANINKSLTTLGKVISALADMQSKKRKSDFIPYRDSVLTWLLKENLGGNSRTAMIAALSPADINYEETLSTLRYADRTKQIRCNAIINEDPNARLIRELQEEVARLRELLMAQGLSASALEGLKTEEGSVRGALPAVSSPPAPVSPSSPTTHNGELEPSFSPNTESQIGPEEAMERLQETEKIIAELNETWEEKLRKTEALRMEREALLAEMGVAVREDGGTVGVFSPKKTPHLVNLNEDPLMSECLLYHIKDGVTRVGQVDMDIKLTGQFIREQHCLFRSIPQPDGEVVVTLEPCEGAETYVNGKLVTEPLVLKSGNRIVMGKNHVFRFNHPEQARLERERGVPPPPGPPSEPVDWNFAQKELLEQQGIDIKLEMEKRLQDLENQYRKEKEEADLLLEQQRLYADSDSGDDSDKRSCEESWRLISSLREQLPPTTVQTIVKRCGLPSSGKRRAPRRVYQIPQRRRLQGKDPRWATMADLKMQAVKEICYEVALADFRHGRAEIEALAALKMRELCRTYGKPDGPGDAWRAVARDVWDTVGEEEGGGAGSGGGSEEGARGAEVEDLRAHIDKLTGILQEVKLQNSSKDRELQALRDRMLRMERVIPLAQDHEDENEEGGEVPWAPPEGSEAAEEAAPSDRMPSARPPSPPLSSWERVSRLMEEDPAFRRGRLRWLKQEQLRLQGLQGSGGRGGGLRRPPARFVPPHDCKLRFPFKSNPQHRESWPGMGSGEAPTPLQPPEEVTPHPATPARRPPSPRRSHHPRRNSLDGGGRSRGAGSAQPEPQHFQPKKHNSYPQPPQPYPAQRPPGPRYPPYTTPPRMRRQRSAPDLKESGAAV

B1: His10 − MBP−Hook3(553–624) (domain or fragment, UniProt Q86VS8 553-624, looked up)
chain: EKLHEANNELQKKRAIIEDLEPRFNNSSLKIEELQEALRKKEEEMKQMEERYKKYLEKAKSVIRTLDPKQNQ
notes: Tagged form used in native gels and ITC; also called Hook3CC3; source: E. coli BL21(DE3) RIL, purified (Ni-NTA, size-exclusion chromatography); not shown: His10, N-terminal, kept; MBP, N-terminal, kept
B1 showed a Kd [1] of 1580 nM.

B2: Hook3(553–624) (domain or fragment, UniProt Q86VS8 553-624, looked up)
chain: EKLHEANNELQKKRAIIEDLEPRFNNSSLKIEELQEALRKKEEEMKQMEERYKKYLEKAKSVIRTLDPKQNQ
notes: Untagged form used in the SEC replacement analysis and in the crystals; parallel coiled-coil homodimer in both crystal structures; A selenomethionine-substituted form was also made for the apo structure; also called Hook3CC3; source: E. coli BL21(DE3) RIL, purified (Ni-NTA, size-exclusion chromatography, tag removed with TEV protease); not shown: His10, N-terminal, cleaved; MBP, N-terminal, …
With B2 the “stoichiometry N” value [2] was 2.

In the case of B3, the binding result [3] is reported as “binds” and the Kd [4] is reported as 5.15 µM.

B4: full-length Hook3(WT)−Myc−FuRed (natural protein, UniProt Q86VS8 1-718, looked up)
chain: MFSVESLERAELCESLLTWIQTFNVDAPCQTVEDLTNGVVMAQVLQKIDPAYFDENWLNRIKTEVGDNWRLKISNLKKILKGILDYNHEILGQQINDFTLPDVNLIGEHSDAAELGRMLQLILGCAVNCEQKQEYIQAIMMMEESVQHVVMTAIQELMSKESPVSAGNDAYVDLDRQLKKTTEELNEALSAKEEIAQRCHELDMQVAALQEEKSSLLAENQVLMERLNQSDSIEDPNSPAGRRHLQLQTQLEQLQEETFRLEAAKDDYRIRCEELEKEISELRQQNDELTTLADEAQSLKDEIDVLRHSSDKVSKLEGQVESYKKKLEDLGDLRRQVKLLEEKNTMYMQNTVSLEEELRKANAARSQLETYKRQVVELQNRLSEESKKADKLDFEYKRLKEKVDSLQKEKDRLRTERDSLKETIEELRCVQAQEGQLTTQGLMPLGSQESSDSLAAEIVTPEIREKLIRLQHENKMLKLNQEGSDNEKIALLQSLLDDANLRKNELETENRLVNQRLLEVQSQVEELQKSLQDQGSKAEDSVLLKKKLEEHLEKLHEANNELQKKRAIIEDLEPRFNNSSLKIEELQEALRKKEEEMKQMEERYKKYLEKAKSVIRTLDPKQNQGAAPEIQALKNQLQERDRLFHSLEKEYEKTKSQREMEEKYIVSAWYNMGMTLHKKAAEDRLASTGSGQSFLARQRQATSSRRSYPGHVQPATAR
In the case of B4, the “tail/cytoplasm ratio of Hook3−Myc−FuRed upon co-expression in RPE1 cells, 16 h post transfection” value [5] is reported as 1.3 tail/cytoplasm ratio and the “tail/cytoplasm ratio of KIF1C−Flag−EGFP upon co-expression in RPE1 cells, 16 h post transfection” value [5] is reported as 3.6 tail/cytoplasm ratio.
